Patent publication US20050244864A1, “Development and use of fluorescent probes of unbound analytes” (priority 2004, published 2005)

B1: D74F, L72A: acrylodan-labeled rI-FABP mutein D74F, L72A (protein)
chain: AFDGTWKVDRNENYEKFMEKMGINVVKRKLGAHDNLKLTITQEGNKFTVKESSNFRNIDVVFELGVDFAYSAAFGTELTGTWTMEGNKLVGKFKRVDNGKELIAVREISGNELIQTYTYEGVEAKRIFKKE
B2: L72M: acrylodan-labeled rI-FABP mutein L72M (protein)
chain: AFDGTWKVDRNENYEKFMEKMGINVVKRKLGAHDNLKLTITQEGNKFTVKESSNFRNIDVVFELGVDFAYSMADGTELTGTWTMEGNKLVGKFKRVDNGKELIAVREISGNELIQTYTYEGVEAKRIFKKE
B3: L1P2 F7: acrylodan-labeled rI-FABP mutein: Y14 I, L38 wt, L72 G, Y117 V (protein, UniProt P02693 2-132, looked up, variant Y14I L72G Y117V)
Fatty acid-binding protein, …: AFDGTWKVDRNENIEKFMEKMGINVVKRKLGAHDNLKLTITQEGNKFTVKESSNFRNIDVVFELGVDFAYSGADGTELTGTWTMEGNKLVGKFKRVDNGKELIAVREISGNELIQTVTYEGVEAKRIFKKE
modifications: acrylodan label
notes: acrylodan-labeled rI-FABP mutein: Y14 I, L38 wt, L72 G, Y117 V
B4: Y117A, L72A: acrylodan-labeled rI-FABP mutein Y117A, L72A (protein)
chain: AFDGTWKVDRNENYEKFMEKMGINVVKRKLGAHDNLKLTITQEGNKFTVKESSNFRNIDVVFELGVDFAYSAADGTELTGTWTMEGNKLVGKFKRVDNGKELIAVREISGNELIQTATYEGVEAKRIFKKE
B5: A73I, L72A: acrylodan-labeled rI-FABP mutein A73I, L72A (protein)
chain: AFDGTWKVDRNENYEKFMEKMGINVVKRKLGAHDNLKLTITQEGNKFTVKESSNFRNIDVVFELGVDFAYSAIDGTELTGTWTMEGNKLVGKFKRVDNGKELIAVREISGNELIQTYTYEGVEAKRIFKKE
B6: L1P12 F12: acrylodan-labeled rI-FABP mutein: Y14 L, L38 wt, L72 G, Y117 V (protein, UniProt P02693 2-132, looked up, variant Y14L L72G Y117V)
Fatty acid-binding protein, …: AFDGTWKVDRNENLEKFMEKMGINVVKRKLGAHDNLKLTITQEGNKFTVKESSNFRNIDVVFELGVDFAYSGADGTELTGTWTMEGNKLVGKFKRVDNGKELIAVREISGNELIQTVTYEGVEAKRIFKKE
modifications: acrylodan label
notes: acrylodan-labeled rI-FABP mutein: Y14 L, L38 wt, L72 G, Y117 V
B7: Y117S, L72A: acrylodan-labeled rI-FABP mutein Y117S, L72A (protein)
chain: AFDGTWKVDRNENYEKFMEKMGINVVKRKLGAHDNLKLTITQEGNKFTVKESSNFRNIDVVFELGVDFAYSAADGTELTGTWTMEGNKLVGKFKRVDNGKELIAVREISGNELIQTSTYEGVEAKRIFKKE
B8: L78F, L72A: acrylodan-labeled rI-FABP mutein L78F, L72A (protein)
chain: AFDGTWKVDRNENYEKFMEKMGINVVKRKLGAHDNLKLTITQEGNKFTVKESSNFRNIDVVFELGVDFAYSAADGTEFTGTWTMEGNKLVGKFKRVDNGKELIAVREISGNELIQTYTYEGVEAKRIFKKE
B9: A73F, L72A: acrylodan-labeled rI-FABP mutein A73F, L72A (protein)
chain: AFDGTWKVDRNENYEKFMEKMGINVVKRKLGAHDNLKLTITQEGNKFTVKESSNFRNIDVVFELGVDFAYSAFDGTELTGTWTMEGNKLVGKFKRVDNGKELIAVREISGNELIQTYTYEGVEAKRIFKKE
B10: L72G: acrylodan-labeled rI-FABP mutein L72G (protein)
chain: AFDGTWKVDRNENYEKFMEKMGINVVKRKLGAHDNLKLTITQEGNKFTVKESSNFRNIDVVFELGVDFAYSGADGTELTGTWTMEGNKLVGKFKRVDNGKELIAVREISGNELIQTYTYEGVEAKRIFKKE
B11: W82F, L72A: acrylodan-labeled rI-FABP mutein W82F, L72A (protein)
chain: AFDGTWKVDRNENYEKFMEKMGINVVKRKLGAHDNLKLTITQEGNKFTVKESSNFRNIDVVFELGVDFAYSAADGTELTGTFTMEGNKLVGKFKRVDNGKELIAVREISGNELIQTYTYEGVEAKRIFKKE
B12: R106W, L72A: acrylodan-labeled rI-FABP mutein R106W, L72A (protein)
chain: AFDGTWKVDRNENYEKFMEKMGINVVKRKLGAHDNLKLTITQEGNKFTVKESSNFRNIDVVFELGVDFAYSAADGTELTGTWTMEGNKLVGKFKRVDNGKELIAVWEISGNELIQTYTYEGVEAKRIFKKE
B13: L72A: acrylodan-labeled rI-FABP clone with L72A (the template mutein) (protein, listed as Rattus norvegicus)
chain: AFDGTWKVDRNENYEKFMEKMGINVVKRKLGAHDNLKLTITQEGNKFTVKESSNFRNIDVVFELGVDFAYSAADGTELTGTWTMEGNKLVGKFKRVDNGKELIAVREISGNELIQTYTYEGVEAKRIFKKDRGHHHHHH
modifications: acrylodan label; MUTAGEN (72)...(72) rat intestinal fatty acid binding protein with alanine substitution for leucine at position 72

Key:
Assay type in all cases: binding
[1] = Probe fluorescence ratio response to oleate:BSA complex, relative to ADIFAB2 (ΔR/ΔRAD2); details: fluorescence response (R-Ro) relative to ADIFAB2; oleate
Protocol: (§1) The intensity ratio (“R” value) for a given probe is determined. The ratio is calculated using the following formula: R=Fλ1/Fλ2 wherein, Fλ1, is the measured fluorescence intensities (intensity of sample with probe present minus intensity of sample without probe present) at wavelength 1 and Fλ2 is the measured fluorescence intensities (intensity of sample with probe present minus intensity of sample without probe present) at wavelength 2. Then, for a given probe, ΔR, the difference in R value between the measurement in the presence of the analyte and in the absence of the analyte, is calculated as follows: ΔR=R+analyte−R0 The ΔR value for a given probe is then compared to a reference probe, for example, ADIFAB or ADIFAB2, by ΔR/ΔRreference. This value is an indication of how dissimilar the new probe (derived by mutation of the template) is to the reference. By this method, probes with new and useful characteristics may be identified. Measurements of fluorescence intensities are obtained using standard techniques.
(§2) Mutant probes were screened in 96-well plates by fluorescence response to five fatty acids: arachidonate, linolenate, linoleate, oleate, and palmitate. Each fatty acid was prepared as a complex with BSA by slow addition of 50 mM stocks of fatty acid sodium salts at pH 11 to 600 μM BSA in HEPES buffer. During the formation of complexes, 15 μL aliquots were periodically measured with the reference probe, ADIFAB2, to determine the ΔR value upon excitation at 375 nm and fluorescence emission at 550 and 457 nm using a Fluorolog-3 spectrofluorometer (Jobin Yvon) (Richieri et al, Molecular and Cellular Biochemistry (1999), 192:87-94 & Richieri et al, J. Biol. Chem. (1996), 271:31068-31074). Complexes were prepared such that the final ΔR was approximately 0.4 which correspond to [FFAu] ranging from 100 to 1000 nM depending on FFA type. These complexes buffer or clamp the FFAu levels at fixed values and therefore ensure the accurate comparison of different probes with the same FFAu concentrations. In contrast, addition of FFAu alone (i.e. uncomplexed FFA) introduces considerable uncertainty in comparing different probes because the FFAu level will be affected by binding to the dispensing device, the walls of the multi-well plates and to the probe itself. Thus, the terms “buffer” and “clamp” as used in this particular context herein are taken to mean the ability of a carrier macromolecule to complex with an unbound metabolite so that the unbound metabolite is presented accurately for measurement purposes and is prevented from non-specific binding such as binding to laboratory apparatus.
(§3) Plates were prepared and read in two stages. First, complexes and fatty acid free BSA were diluted to 6 μM BSA in HEPES and added to the 96-well plate at 300 μL per well. A MultiProbe II HT (Perkin Elmer) (an automated liquid handling system) was used to facilitate plate preparation for high throughput screening, but any automated or manual pipetting system will suffice. The background fluorescence was then measured at the same wavelengths as used for ADIFAB2 using a Fluorolog-3 spectrofluorometer with an external Micromax 384 fluorescence plate reader (Jobin Yvon). In the second stage, 30 μL aliquots of the mutant probes were added to multiple wells of the plate, one for each fatty acid and one with fatty acid free BSA only, and the fluorescence intensity at each wavelength was again measured on the plate reader. After subtraction of the background fluorescence, the fluorescence ratio of each well was calculated.
(§4) The fluorescence response was quantitatively compared to ADIFAB2 to search for changes in magnitude and fatty acid profile; for example the response to one fatty acid relative to another. For each probe the ratio differences (AR) between wells with each fatty acid compared to a corresponding well with fatty acid free BSA were recorded. […]

[2] = Probe fluorescence ratio response to palmitate:BSA complex, relative to ADIFAB2 (ΔR/ΔRAD2); details: fluorescence response (R-Ro) relative to ADIFAB2; palmitate
Protocol: as §1, §2, §3, §4

[3] = Probe fluorescence ratio response to linoleate:BSA complex, relative to ADIFAB2 (ΔR/ΔRAD2); details: fluorescence response (R-Ro) relative to ADIFAB2; linoleate
Protocol: as §1, §2, §3, §4

[4] = Probe fluorescence ratio response to arachidonate:BSA complex, relative to ADIFAB2 (ΔR/ΔRAD2); details: fluorescence response (R-Ro) relative to ADIFAB2; arachidonate
Protocol: as §1, §2, §3, §4

[5] = Probe fluorescence ratio response to linolenate:BSA complex, relative to ADIFAB2 (ΔR/ΔRAD2); details: fluorescence response (R-Ro) relative to ADIFAB2; linolenate
Protocol: as §1, §2, §3, §4

| Molecule | ΔR/ΔRAD2 OA [1] | ΔR/ΔRAD2 PA [2] | ΔR/ΔRAD2 LA [3] | ΔR/ΔRAD2 AA [4] | ΔR/ΔRAD2 LNA [5] |
| --- | --- | --- | --- | --- | --- |
| B1 | 0.51 | 0.93 | 0.67 | 0.44 | 1.04 |
| B2 | 1.49 | 1.32 | 1.46 | 1.31 | 1.35 |
| B3 | 0.3 | 0.1 | 0.6 | 0.9 | 0.5 |
| B4 | 0.93 | 0.32 | 1.01 | 1.27 | 0.62 |
| B5 | −0.04 | −0.04 | −0.04 | 0.38 | 0.03 |
| B6 | 0.3 | 0.1 | 0.5 | 0.9 | 0.5 |
| B7 | 1.19 | 0.55 | 1.42 | 1.35 | 1.07 |
| B8 | 1.83 | 0.91 | 2 | 2.04 | 2.05 |
| B9 | 0.73 | 1.13 | 1.23 | 1.21 | 1.86 |
| B10 | 0.52 | 0.26 | 0.48 | 0.62 | 0.48 |
| B11 | 0.78 | 0.41 | 1.08 | 0.68 | 0.76 |
| B12 | 0.99 | 0.41 | 1.04 | 1.11 | 1.03 |
| B13 | 1.15 | 1.02 | 1.14 | 1.12 | 1.16 |
